Reference: the supplement of paper PMC7125110
± gives the standard error. Variants at the floor of the assay were thinned out.

B1: glmS ribozyme (parent)
chain: AUAAAAGCGCCAGAACUACAGAAAUGUAGUUGACGAGGAGGAGGUUUAUCGAAUUUUCGGCGGAUGCCUCCAAA

Legend:
Settings in all cases: with glucosamine-6-phosphate
glucosamine-6-phosphate [1] = variants of: B1; test: self-cleavage kobs at 40 uM GlcN6P; higher = faster cleavage; RNA array
Procedure, shortened: (§1)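 Using a hybridised Cy3 probe at 37 °C, barcoded ribozyme variants transcribed in situ by E. coli RNA polymerase on sequenced MiSeq chips were monitored across tiles imaged over ~14 h. The flow contained glucosamine-6-phosphate from 40 μM to 10 mM in HEPES/KCl/Mg(OAc)2 buffer. Signals were normalised to baseline and to non-cleaving reference variants before per-tile medians were fit to one- or two-exponential decays to yield kobs. Weighted Michaelis–Menten fits across concentrations gave kcat and KM.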

glucosamine-6-phosphate [2] = variants of: B1; test: self-cleavage kobs at 2500 uM GlcN6P; higher = faster cleavage; RNA array
Procedure, shortened: as §1

glucosamine-6-phosphate [3] = variants of: B1; test: self-cleavage kobs at 10000 uM GlcN6P; higher = faster cleavage; RNA array
Procedure, shortened: as §1

glucosamine-6-phosphate [4] = variants of: B1; test: self-cleavage kobs at 160 uM GlcN6P; higher = faster cleavage; RNA array
Procedure, shortened: as §1

glucosamine-6-phosphate [5] = variants of: B1; test: self-cleavage kobs at 640 uM GlcN6P; higher = faster cleavage; RNA array
Procedure, shortened: as §1

For AUAAAAGCGCCAGAACUACAGAAAUGUAGUUGAGGAGGAGGAGAUUUAUCGAAUUUUCGCCGGAUGCCUCCAAA, the “self-cleavage kobs at 40 uM GlcN6P” value (glucosamine-6-phosphate [1]) was less than 1e-05 s⁻¹, the “self-cleavage kobs at 2500 uM GlcN6P” value (glucosamine-6-phosphate [2]) was less than 1e-05 s⁻¹ and the “self-cleavage kobs at 10000 uM GlcN6P” value (glucosamine-6-phosphate [3]) was less than 1e-05 s⁻¹.

With AUAAAAGCGCCAGAACUACAGAAAUGUAGUUUACGAGGAGGAGGUUUUUCGAAUUUUCGGCGGAUGCCUCCAAA the “self-cleavage kobs at 40 uM GlcN6P” value (glucosamine-6-phosphate [1]) was less than 1e-05 s⁻¹, the “self-cleavage kobs at 160 uM GlcN6P” value (glucosamine-6-phosphate [4]) was less than 1e-05 s⁻¹ and the “self-cleavage kobs at 640 uM GlcN6P” value (glucosamine-6-phosphate [5]) was less than 1e-05 s⁻¹.

With AUAAAGGCGCCAGAACUACAGAAAUGUAGUUAACGACGAGGAGGUGUAUCGAAUUUUAGGCGGAUGGCUCCAAA the “self-cleavage kobs at 40 uM GlcN6P” value (glucosamine-6-phosphate [1]) was 0.000232 ± 6.3e-05 s⁻¹, the “self-cleavage kobs at 640 uM GlcN6P” value (glucosamine-6-phosphate [5]) was 0.000494 ± 0.00014 s⁻¹ and the “self-cleavage kobs at 10000 uM GlcN6P” value (glucosamine-6-phosphate [3]) was 0.000132 ± 3.3e-05 s⁻¹.

AUAAAAGCGCCAGAACUACAGAAAUGUAGUCGACGAGGAGGAUGUUUAUCGAAUUUUCGGCGGAUACCUCCAAA was tested, and the “self-cleavage kobs at 40 uM GlcN6P” value (glucosamine-6-phosphate [1]) was less than 1e-05 s⁻¹.

For AUAAAAGUGCCAGAACUACAGAAAUGUAAUUGACGAGGAUGAGGAUUAUCGAAUUUUCGGCGGAUGCCUCCAAA, the “self-cleavage kobs at 40 uM GlcN6P” value (glucosamine-6-phosphate [1]) was less than 1e-05 s⁻¹ and the “self-cleavage kobs at 10000 uM GlcN6P” value (glucosamine-6-phosphate [3]) was less than 1e-05 s⁻¹.

In the case of AUAAAAGCGCCAGAACUACAGAAAUGUAUUUGACGAGGAGGAGGUUUAUGGAAUUUUCGGCGGAUGCCUCCAAA, the “self-cleavage kobs at 40 uM GlcN6P” value (glucosamine-6-phosphate [1]) is reported as 5.51e-05 ± 1.5e-05 s⁻¹, the “self-cleavage kobs at 160 uM GlcN6P” value (glucosamine-6-phosphate [4]) is reported as 0.000992 ± 0.0003 s⁻¹ and the “self-cleavage kobs at 640 uM GlcN6P” value (glucosamine-6-phosphate [5]) is reported as 5.49e-05 ± 1.4e-05 s⁻¹.

With AUAAAAGAGCCAGAACUACAGAAAUGUAGUUGAGGAGGAGGAGGUUUAUCGUAUUUUCGGCGGAUGUCUCCAAA the “self-cleavage kobs at 40 uM GlcN6P” value (glucosamine-6-phosphate [1]) was less than 1e-05 s⁻¹ and the “self-cleavage kobs at 10000 uM GlcN6P” value (glucosamine-6-phosphate [3]) was less than 1e-05 s⁻¹.

In the case of AUAAAAGCGCCAGUACUACAGAAAUGUAGUUGGCGAGGAGGAGGUUUAUCGAAUUUUCGGCGGAUGCCUCCAAA, the “self-cleavage kobs at 40 uM GlcN6P” value (glucosamine-6-phosphate [1]) is reported as less than 1e-05 s⁻¹, the “self-cleavage kobs at 640 uM GlcN6P” value (glucosamine-6-phosphate [5]) is reported as less than 1e-05 s⁻¹ and the “self-cleavage kobs at 10000 uM GlcN6P” value (glucosamine-6-phosphate [3]) is reported as less than 1e-05 s⁻¹.

For AUAAAAGAGCCAGAACUACAGAAAUGUAGUUGACGAGGAGGAGGUUUAUAGAAUUUUCGGCGGAUGCCUCCAAA, the “self-cleavage kobs at 40 uM GlcN6P” value (glucosamine-6-phosphate [1]) was less than 1e-05 s⁻¹, the “self-cleavage kobs at 160 uM GlcN6P” value (glucosamine-6-phosphate [4]) was less than 1e-05 s⁻¹ and the “self-cleavage kobs at 640 uM GlcN6P” value (glucosamine-6-phosphate [5]) was less than 1e-05 s⁻¹. For the same variant, the “self-cleavage kobs at 2500 uM GlcN6P” value (glucosamine-6-phosphate [2]) was less than 1e-05 s⁻¹ and the “self-cleavage kobs at 10000 uM GlcN6P” value (glucosamine-6-phosphate [3]) was less than 1e-05 s⁻¹.

AUAAAAGCCCCAGAACUACAGAAAUGUAGUUGACGAGGAGGAGGUUUCUCGAAUUUUCGGCGGAUGCCUCCAAA was tested, and the “self-cleavage kobs at 40 uM GlcN6P” value (glucosamine-6-phosphate [1]) was less than 1e-05 s⁻¹, the “self-cleavage kobs at 640 uM GlcN6P” value (glucosamine-6-phosphate [5]) was less than 1e-05 s⁻¹ and the “self-cleavage kobs at 2500 uM GlcN6P” value (glucosamine-6-phosphate [2]) was less than 1e-05 s⁻¹.

For AUAAAAGCGCCAUAACUACAGAAAUGUAGUUGACGAGUAGGAGGUUUAUCGAAUUUUCGGCGGAUGCGUCCAAA, the “self-cleavage kobs at 40 uM GlcN6P” value (glucosamine-6-phosphate [1]) was 0.00012 ± 4.3e-05 s⁻¹, the “self-cleavage kobs at 160 uM GlcN6P” value (glucosamine-6-phosphate [4]) was 0.000111 ± 2.7e-05 s⁻¹ and the “self-cleavage kobs at 640 uM GlcN6P” value (glucosamine-6-phosphate [5]) was 0.000157 ± 4.9e-05 s⁻¹. The “self-cleavage kobs at 2500 uM GlcN6P” value (glucosamine-6-phosphate [2]) was 6.64e-05 ± 2.9e-05 s⁻¹ and the “self-cleavage kobs at 10000 uM GlcN6P” value (glucosamine-6-phosphate [3]) was 7.63e-05 ± 1.8e-05 s⁻¹.

AUAAAUGCUCCAGACCUACAGAAAUGUAGAUGACGAGGAGGAGGUUUACCGAAUUUUCGGCGGAUGCCUCCAAA was tested, and the “self-cleavage kobs at 40 uM GlcN6P” value (glucosamine-6-phosphate [1]) was less than 1e-05 s⁻¹.

With AUAAAAUCGCCCGAACUACAGAAAUGUAGUUGACGAGGAGGAGGUUUAUCGAAUUUUCGGCGGAUGCCUCCAAA the “self-cleavage kobs at 40 uM GlcN6P” value (glucosamine-6-phosphate [1]) was less than 1e-05 s⁻¹, the “self-cleavage kobs at 160 uM GlcN6P” value (glucosamine-6-phosphate [4]) was less than 1e-05 s⁻¹ and the “self-cleavage kobs at 640 uM GlcN6P” value (glucosamine-6-phosphate [5]) was less than 1e-05 s⁻¹. The “self-cleavage kobs at 2500 uM GlcN6P” value (glucosamine-6-phosphate [2]) was less than 1e-05 s⁻¹ and the “self-cleavage kobs at 10000 uM GlcN6P” value (glucosamine-6-phosphate [3]) was less than 1e-05 s⁻¹.

For AUAAAAGCGCGAGAACUACAGAAAUGUAGUUGACGAGGAGGAGGUUUAACGAAUUUUCGGCGGAUGCCUCCAAA, the “self-cleavage kobs at 40 uM GlcN6P” value (glucosamine-6-phosphate [1]) was less than 1e-05 s⁻¹, the “self-cleavage kobs at 160 uM GlcN6P” value (glucosamine-6-phosphate [4]) was less than 1e-05 s⁻¹ and the “self-cleavage kobs at 640 uM GlcN6P” value (glucosamine-6-phosphate [5]) was less than 1e-05 s⁻¹. The “self-cleavage kobs at 2500 uM GlcN6P” value (glucosamine-6-phosphate [2]) was less than 1e-05 s⁻¹.

For AUAAAAGCGCCAGAACUACAGAAAUGUAGUUGACGAGGAUGAUGUUUAUCGAAUUUUCGGCGGAUGCCUCCAAA, the “self-cleavage kobs at 40 uM GlcN6P” value (glucosamine-6-phosphate [1]) was less than 1e-05 s⁻¹, the “self-cleavage kobs at 160 uM GlcN6P” value (glucosamine-6-phosphate [4]) was less than 1e-05 s⁻¹ and the “self-cleavage kobs at 640 uM GlcN6P” value (glucosamine-6-phosphate [5]) was less than 1e-05 s⁻¹. The “self-cleavage kobs at 10000 uM GlcN6P” value (glucosamine-6-phosphate [3]) was less than 1e-05 s⁻¹.

With AUAAAAGCGCCAGAACUACAGAAAUGUAGUUGACGAGGAGGAGGCUUAUCGAAUUUUUGGCGGAUGCCUCCAAA the “self-cleavage kobs at 40 uM GlcN6P” value (glucosamine-6-phosphate [1]) was less than 1e-05 s⁻¹, the “self-cleavage kobs at 160 uM GlcN6P” value (glucosamine-6-phosphate [4]) was less than 1e-05 s⁻¹ and the “self-cleavage kobs at 640 uM GlcN6P” value (glucosamine-6-phosphate [5]) was less than 1e-05 s⁻¹. The “self-cleavage kobs at 2500 uM GlcN6P” value (glucosamine-6-phosphate [2]) was less than 1e-05 s⁻¹.

For AUAAAAGCGCCAGAACUACAGAAAUGUAGUUGACGAGGAUCAGGUUUUUCGAAUUUUCGGCGGAUGCCUCCAAA, the “self-cleavage kobs at 40 uM GlcN6P” value (glucosamine-6-phosphate [1]) was less than 1e-05 s⁻¹.

AUAAAAUCGCCAGAACUACAGAAAUGUAGUUGACGAGGAGGAGGUUUAUCGGAUUUUCGGCGGAUGCCUCCAAA was tested, and the “self-cleavage kobs at 40 uM GlcN6P” value (glucosamine-6-phosphate [1]) was less than 1e-05 s⁻¹ and the “self-cleavage kobs at 160 uM GlcN6P” value (glucosamine-6-phosphate [4]) was less than 1e-05 s⁻¹.

AUAAAAGCGCGAAAACUACAGAAAUGUAGUUUACGAGGAGGAGGUUUAUCGAAUUUUCGGCGGAUGCCUCCAAA was tested, and the “self-cleavage kobs at 40 uM GlcN6P” value (glucosamine-6-phosphate [1]) was less than 1e-05 s⁻¹.

In the case of AUAAAAGCGCCAUAACUACAGAAAUGUAGUUGACGAGGAGGAGGUUUAUCGAAUUUGCGGCGGAUGCCUCCAAA, the “self-cleavage kobs at 40 uM GlcN6P” value (glucosamine-6-phosphate [1]) is reported as less than 1e-05 s⁻¹.

With AUAAACCCGCCAGAACUACAGAAAUGUAGUUGACGAGGCGCAGGUUUAUCGAAUUUUCGGUGGAUGCCUCCAAA the “self-cleavage kobs at 40 uM GlcN6P” value (glucosamine-6-phosphate [1]) was less than 1e-05 s⁻¹.

AUAAAAGGGCCAGAGCUACAGAAAUGUAGUUGACGAGGGGGAGGUUUAUCGAAUUUUCGGCGGAUGGCUCCAAA was tested, and the “self-cleavage kobs at 40 uM GlcN6P” value (glucosamine-6-phosphate [1]) was less than 1e-05 s⁻¹.

With AUAAAAGCGCCGGAAGUACAGAAAUGUAGUUGACGAGGAGGACGUUUAUCGAAUUUUCGGCGGAUGCCUCCAAA the “self-cleavage kobs at 40 uM GlcN6P” value (glucosamine-6-phosphate [1]) was less than 1e-05 s⁻¹.

AUAAAAGCGCCAGAAAUACAGAAAUGUAGUAGACGAGGAGGAGGUUCAUCGAAUUUUCGGCGAAUGCCUCCAAA was tested, and the “self-cleavage kobs at 40 uM GlcN6P” value (glucosamine-6-phosphate [1]) was less than 1e-05 s⁻¹.

AUAAAAGCGCCAGAACUACAGAAAUGUAGUUGACGAAUAGGAGGUUUAUCGAAUUUUCGGCGGAUGCCUCUAAA was tested, and the “self-cleavage kobs at 40 uM GlcN6P” value (glucosamine-6-phosphate [1]) was less than 1e-05 s⁻¹.

In the case of AUAAAAGCGCCAGAACUACAGAAAUGUAGUUGGCGAGGAGGAGGUGUAUCGAAUUUUCGGCCGAUGCCUCCAAA, the “self-cleavage kobs at 40 uM GlcN6P” value (glucosamine-6-phosphate [1]) is reported as less than 1e-05 s⁻¹, the “self-cleavage kobs at 640 uM GlcN6P” value (glucosamine-6-phosphate [5]) is reported as less than 1e-05 s⁻¹ and the “self-cleavage kobs at 2500 uM GlcN6P” value (glucosamine-6-phosphate [2]) is reported as less than 1e-05 s⁻¹.

For AUAAAAGCCCCAUAACUACAGAAAUGUAGUUGACGAGGAGGAGCGUUAUCGAAUUUUCGGCGGAUGCCUCCAAA, the “self-cleavage kobs at 40 uM GlcN6P” value (glucosamine-6-phosphate [1]) was less than 1e-05 s⁻¹, the “self-cleavage kobs at 640 uM GlcN6P” value (glucosamine-6-phosphate [5]) was less than 1e-05 s⁻¹ and the “self-cleavage kobs at 2500 uM GlcN6P” value (glucosamine-6-phosphate [2]) was less than 1e-05 s⁻¹.

With AUAAAAGCGCCAGAACUACAGAAAUGUAGUUGACCAGGAGAAGGUUUAUCGAAUUUUCGGCGGAUGCCUCCAAA the “self-cleavage kobs at 40 uM GlcN6P” value (glucosamine-6-phosphate [1]) was less than 1e-05 s⁻¹, the “self-cleavage kobs at 160 uM GlcN6P” value (glucosamine-6-phosphate [4]) was less than 1e-05 s⁻¹ and the “self-cleavage kobs at 640 uM GlcN6P” value (glucosamine-6-phosphate [5]) was less than 1e-05 s⁻¹. The “self-cleavage kobs at 2500 uM GlcN6P” value (glucosamine-6-phosphate [2]) was less than 1e-05 s⁻¹ and the “self-cleavage kobs at 10000 uM GlcN6P” value (glucosamine-6-phosphate [3]) was less than 1e-05 s⁻¹.

AUAAAAGCGUCAGAACUACAGAAAUGUAGUUGACGAGGAGGAGGUGUAUCGAAUUUUCGGCGGAUGCCUCCAAA was tested, and the “self-cleavage kobs at 40 uM GlcN6P” value (glucosamine-6-phosphate [1]) was less than 1e-05 s⁻¹ and the “self-cleavage kobs at 160 uM GlcN6P” value (glucosamine-6-phosphate [4]) was less than 1e-05 s⁻¹.
